Where two headings read alike, the source gives them in different places.
B2: HigA antitoxin of the His6-HigBHigA complex (natural protein, Proteus vulgaris (plasmid Rts1), UniProt Q7A224 1-104, looked up)
chain: MRQFKVSHPGEMIARDLEDMGVSGRRFAHNIGVTPATVSRLLAGKTALTPSLSIRIAAALGSTPEFWLRLQSNYDLRQLENQIDTSGIVLYGESNEQQQNAQEH

Columns and labels:
[1] = tested on: HigB (of wild-type HigB2HigA2 complex);HigA (of wild-type HigB2HigA2 complex) (Proteus vulgaris (plasmid Rts1);Proteus vulgaris (plasmid Rts1)); experiment: EMSA; settings: binding buffer pH not stated ([…]
[2] = molecular target: the molecule itself; experiment: crystal structure
[3] = molecular target: the molecule itself; experiment: crystal structure; remark: listed apart in the source
[4] = molecular target: T1, HigA antitoxin of the complexes analysed by size exclusion chromatography (Proteus vulgaris (plasmid Rts1), UniProt Q7A224 1-104); experiment: SEC
T1 sequence (looked up): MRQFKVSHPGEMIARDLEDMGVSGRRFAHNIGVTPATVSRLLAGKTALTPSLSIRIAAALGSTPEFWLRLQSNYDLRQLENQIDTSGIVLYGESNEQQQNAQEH

[5] = molecular target: B2; experiment: crystal structure

O1-O2(scrambled) (O1 only)
Kd [1]: 360 nM

O1(scrambled)-O2 (O2 only)
Kd [1]: 240 nM

B1: HigA antitoxin with C-terminal His6 tag of the HigBHigA-His6 complex (selenomethionine-derivatized) (natural protein, Proteus vulgaris (plasmid Rts1), UniProt Q7A224 1-104, looked up)
chain: MRQFKVSHPGEMIARDLEDMGVSGRRFAHNIGVTPATVSRLLAGKTALTPSLSIRIAAALGSTPEFWLRLQSNYDLRQLENQIDTSGIVLYGESNEQQQNAQEH
modifications: selenomethionine-derivatized
stoichiometry N [2]: 2

B2
stoichiometry N [3]: 2

B3: HigB(L5ext), HigB with loop 5 extended by NGNG (natural protein)
chain: MIKSFKHKGLKLLFEKGVTSGVPAQDVDRINDRLQAIDTATEIGELNRQIYKLHPLKGDREGYWSITVRANWRITFQFINGDNGNGAYILNYEDYH
binding result [4]: binds

B4: HigB toxin of the His6-HigBHigA complex (natural protein)
chain: MIKSFKHKGLKLLFEKGVTSGVPAQDVDRINDRLQAIDTATEIGELNRQIYKLHPLKGDREGYWSITVRANWRITFQFINGDAYILNYEDYH
binding result [5]: binds

B5: Wild-type HigB toxin of the HigB2HigA2 complex analysed by size exclusion chromatography (natural protein)
chain: MIKSFKHKGLKLLFEKGVTSGVPAQDVDRINDRLQAIDTATEIGELNRQIYKLHPLKGDREGYWSITVRANWRITFQFINGDAYILNYEDYH
binding result [4]: binds

From article doi:10.1101/2021.03.04.434028 (bioRxiv, 2021)
